This series concerns MS2 coat protein. Put plainly: apparent KD of MS2 coat protein; designed switch direction (-1 OFF switch, 1 ON switch): -1; higher = weaker reporter binding. The procedure, abridged: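 Designed RNA switches were transcribed on Illumina chips by stalled E. coli RNA polymerase and titrated with SNAP-549-labelled MS2 coat protein from 0.7 or 1.5 nM, doubling to 3 µM. Step length ran from 0.8–1.5 h at the lowest concentration to 10–20 min at the highest. The apparent KD is the median over clusters for each design, from curve-fitted normalised cluster fluorescence.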

The mark [1] stands for this setting: Eterna round: R95, input ligand: FMN 200 uM.
[2] abbreviates: Eterna round: R95, input ligand: microRNA oligo, concentration not stated.
[3] abbreviates: Eterna round: R95, input ligand: none.
The mark [4] stands for this setting: input ligand: microRNA oligo, concentration not stated.

Turning to “CUCAUGCCUGAGGAUAUGCUGUACAAAAGUACUGCAGAAGGCGGGACAUGAGGAUCACCCAUGUGGCGAAAGCC [Omei Ex G8] (Eterna round: R97, puzzle: Exclusion 6)”, the “apparent KD of MS2 coat protein” value runs as follows: (input ligand: FMN 200 uM) 78.7 nM; (input ligand: none) 519 nM.
Take “GAGAAAGCAAGCAAGUGAAACAUGAGGAUCACCCAUGUCCUCAUUUGCUCGUCUUAUAAGCUAUGCGAAAGCAUAGC [Mat - Sensor v3 - turn-off var 1 - Eli Mod - D50] (puzzle: Sensor v3, turn-off variant 1)”: the “apparent KD of MS2 coat protein” value was found to be 12.3 nM under setting [1], 101 nM under setting [2] and 11.3 nM under setting [3].
On to “GGAGAGGUAGGAUAUCCACUUUAGAACAUGAGGAUCACCCAUGUAGAACCACAUGAAAUGGGAGAAGGACCAGGGA [AK-MS2ROC-r4-exclusion5-3] (Eterna round: R97, puzzle: Exclusion 5)”, for which the “apparent KD of MS2 coat protein” value is, setting by setting: (input ligand: FMN 200 uM) 65.3 nM; (input ligand: none) 56.1 nM.
Take “AAUUUACAUGAGGAUCACCCAUGUGAGGAUAUAUACAAAGAAGUGUUAUUAAGAAUGUAUAGAAGGCGCGUGAU [JR_Exc1_Sub039] (Eterna round: R97, puzzle: Exclusion 1)”: the “apparent KD of MS2 coat protein” value is 73.6 nM (input ligand: FMN 200 uM) and 62 nM (input ligand: none).
Consider “AUGUGGGUACGAAGGUGUAGAUUGAGCGUACGUUCUGGAACAUGAGGAUCACCCAUGUCGCUUUUUGCUCGUCUUAU [JR_SV3TOV2_Sub035] (puzzle: Sensor v3, turn-off variant 2)”, for which the “apparent KD of MS2 coat protein” value under setting [1] was 25.1 nM, the “apparent KD of MS2 coat protein” value under setting [2] worked out at 47.8 nM and the “apparent KD of MS2 coat protein” value under setting [3] is 24.1 nM.
Consider “ACAUGAGGAUCACCCAUGUCUGGCUGGUCUGCUCCGGUUGUUGAGGAUAUAGUUCGGUGUUCGCGCUAGAAGGUGAGGGCUGGC [Aenatbe mod 38] (Eterna round: R96, puzzle: Exclusion NG 3)”, for which the “apparent KD of MS2 coat protein” value stood at 34.4 nM (input ligand: FMN 200 uM), 32.1 nM under setting [4] and 39 nM (input ligand: none).
As for “UAAGAUUACCGAGGAUAUGGUAGUUUCUAUUAACCAGAAGGCGGACUCAACAUGAGGAUCACCCAUGUAUAAAGGGUAUUAGAU [JR_ExcNG1_Sub041] (Eterna round: R96, puzzle: Exclusion NG 1)”, the “apparent KD of MS2 coat protein” value is, setting by setting: (input ligand: FMN 200 uM) 91.7 nM; under setting [4], 56.4 nM; (input ligand: none) 116 nM.
“CGAGGUAGAGGAUAUACGUGGAAAUAGAUUCAUGUUAAUCUACAUGAGGAUCACCCAUGUAGAAGGCUAUAGCG [JR_Ex2_Sub075] (Eterna round: R97, puzzle: Exclusion 2)”: the “apparent KD of MS2 coat protein” value reads like this: (input ligand: FMN 200 uM) 80 nM; (input ligand: none) 24.9 nM.
For the sequence “GUAGAGUAAGGAUAUGUUGAAUAGGAUAGAAUGGUUAGAAAGCAGAAGGUACAUGAGGAUCACCCAUGUAAUGU [Excluse me!!!! 14 - Jieux - Exclusion 4] (puzzle: Exclusion 4)”, under setting [2], the “apparent KD of MS2 coat protein” value was determined as 21.4 nM.
“AUCGUGCAGCUUUGCUGUACGAGUACAUGAGGAUCACCCAUGUAGGAUAUGGUACGCAAAGCGUGCUAGAAGGAUAUGAGAUUA [Mat - Exclusion NG 3 - Mod of JL - D96] (Eterna round: R96, puzzle: Exclusion NG 3)”: the “apparent KD of MS2 coat protein” value runs as follows: (input ligand: FMN 200 uM) 24.2 nM; under setting [4], 21.5 nM; (input ligand: none) 28.8 nM.
For “GCACGGAGUGUAGGAUAUCUGUGCGAUUAGCUCAGAGAAGGACACAUGAGGAUCACCCAUGUGUUCCACCGAAAGGUUCCGUGC [Eli exng1 - 048] (Eterna round: R96, puzzle: Exclusion NG 1)”, the “apparent KD of MS2 coat protein” value reads like this: (input ligand: FMN 200 uM) 11 nM; under setting [4], 8.4 nM; (input ligand: none) 11.4 nM.
On to “GUAGAGUAAGGAUAUUGUGAAUAGGAUAGAAUGGUUAGAAACGAGAAGGUACAUGAGGAUCACCCAUGUAAUGU [Excluse me!!!! 22 - Jieux - Exclusion 4] (puzzle: Exclusion 4)”, for which the “apparent KD of MS2 coat protein” value by setting is: under setting [1], 24.1 nM; under setting [2], 22.1 nM; under setting [3], 24.4 nM.
On to “AGUACCUGAGUACAAAGUAACAUGAGGAUCACCCAUGUAAAUGGGUGAGAACAAGCUCACCGUUCGUCUUAAAUAAA [JL turnoff v1 79] (Eterna round: R96, puzzle: Sensor v2, turn-off variant)”, for which the “apparent KD of MS2 coat protein” value reads like this: (input ligand: FMN 200 uM) 584 nM; under setting [4], 38.8 nM; (input ligand: none) 618 nM.
As for “AACCGCGGAGGAUAUACACGGUGAUACUGAACUCCGGCACGACAUGAGGAUCACCCAUGUAGAAGGCCGAAUAU [EX2 B.13] (Eterna round: R97, puzzle: Exclusion 2)”, the “apparent KD of MS2 coat protein” value by setting is: (input ligand: FMN 200 uM) 151 nM; (input ligand: none) 21.3 nM.
For “GCUGUCACCGUUAGGAUAUGUGAUUAAAUAUGAUCGCAGAAGGAACAUGAGGAUCACCCAUGUCGAUCCGUCCG [Eternabot (L1) Solution 36] (Eterna round: R97, puzzle: Brourd's mod of Exclusion 4)” the same measures were 34.8 nM and 23.1 nM.
In the case of “GAAAGGUGAGGAUAUACACUGCGGUGUAGUCCUCAUAAAAGACAUGAGGAUCACCCAUGUAGAAGGCACAUAAA [Rirereis] (puzzle: Exclusion 2)”, the “apparent KD of MS2 coat protein” value by setting is: under setting [1], 96 nM; under setting [2], 32.8 nM; under setting [3], 27.5 nM.
For the sequence “AAGAAACAUGAGGAUCACCCAUGUGAGGAUAUGGCCCGCCCGGCGUGAGCUGGUUUUAUCAGAAGGCACAAAGG [salish99_ex1_r4_015] (Eterna round: R97, puzzle: Exclusion 1)”, the “apparent KD of MS2 coat protein” value turned out to be 39.4 nM (input ligand: FMN 200 uM) and 44.6 nM (input ligand: none).
The corresponding values for “UAUUUGCAAGCGAGAUCCCACAUGAGGAUCACCCAUGUUCUUGGAAAGUACAGAAUUACUGUACAAGCUCGUCUUCU [mod-Eli/newD-last] (Eterna round: R97, puzzle: Sensor, turn-off variant 1)” are 18.9 nM and 20.4 nM.
In the case of “AAGAAGAUAGGAUAUACGAGGAGAGGAGAGAGAAGGUGAGGACAUGAGGAUCACCCAUGUAGAAGGAUCAGGAA [JR_Exclu2_Sub064] (puzzle: Exclusion 2)”, the “apparent KD of MS2 coat protein” value under setting [1] was 81.3 nM, the “apparent KD of MS2 coat protein” value under setting [2] is 88 nM and the “apparent KD of MS2 coat protein” value under setting [3] was 89.9 nM.
For “GCAAAGGUAGGAUAUCCACUGUGCAACAUGAGGAUCACCCAUGUGGUUCUUACCAUAAUUGGAGAAGGGCCGUGCA [Inrariri] (puzzle: Exclusion 5)” the same measures were 19.7 nM, 19.3 nM and 24.2 nM.
For “UUUUAACAUGAGGAUCACCCAUGUGAGGAUAUCGAAAUUUAUAUUUAUAUUAAUAAUUCGAGAAGGCACAUUUU [JMF 77] (puzzle: Exclusion 1)”, under setting [2], the “apparent KD of MS2 coat protein” value worked out at 155 nM.
For “GGAUCAUGAGGAUAUCGAGGUUAGUACAUGAGGAUCACCCAUGUUAUCCAGGUCUCGUUUCGAGAAGGCAUGAUCC [LRO-Ex5-10] (puzzle: Exclusion 5)”, the “apparent KD of MS2 coat protein” value under setting [2] is 21.2 nM.
Turning to “UCAUGUCCAGAGGAUAUGUAGCGGGAGACCGCAACAGAAGGCUGGACAUGAGGAUCACCCAUGUGCGCCUUCGA [jl-ex3-4.27 ViennaUCT mod] (Eterna round: R97, puzzle: Exclusion 6)”, the “apparent KD of MS2 coat protein” value (input ligand: FMN 200 uM) was 35.9 nM and the “apparent KD of MS2 coat protein” value (input ligand: none) turned out to be 113 nM.
As to “UUAAUUAAUUUAAUAUAAGAUCACAUGAGGAUCACCCAUGUAUAGGAUAUCAGCUCGUGUAGAGCUGAGAAGGAUACAUAAUAU [ExNG3/2-B3] (Eterna round: R96, puzzle: Exclusion NG 3)”, the “apparent KD of MS2 coat protein” value (input ligand: FMN 200 uM) is 105 nM, the “apparent KD of MS2 coat protein” value under setting [4] was determined as 161 nM and the “apparent KD of MS2 coat protein” value (input ligand: none) was 155 nM.
For the sequence “ACUUAUUGAGGAUAUACAGAUUAUUACAUGAGGAUCACCCAUGUUCUUCAAUGUAUAUAUGUAGAAGGCAGAAGAU [Mat - Exclusion 5 - JL Mod - D15] (Eterna round: R97, puzzle: Exclusion 5)”, the “apparent KD of MS2 coat protein” value (input ligand: FMN 200 uM) was 177 nM and the “apparent KD of MS2 coat protein” value (input ligand: none) worked out at 57.5 nM.
In the case of “GGAGAGGUAGGAUAUGGAGGUUAAAACAUGAGGAUCACCCAUGUUAAACCUCAUGACCGACUAGAAGGACCAGUCC [AK-MS2ROC-r4-exclusion5-8] (Eterna round: R97, puzzle: Exclusion 5)”, the “apparent KD of MS2 coat protein” value was determined as 15 nM (input ligand: FMN 200 uM) and 11.1 nM (input ligand: none).
Regarding “ACAAGCUUCGAUAUCCUUAACAUGAGGAUCACCCAUGUUCGUCUUAUGAUGGUCUGAUCCCUGAGGAUCGGACCGUU [JL-sv1-2.09 Brourd Mod] (puzzle: Sensor v3, turn-off variant 1)”, the “apparent KD of MS2 coat protein” value under setting [1] amounted to 40.9 nM, the “apparent KD of MS2 coat protein” value under setting [2] was determined as 62.3 nM and the “apparent KD of MS2 coat protein” value under setting [3] is 40.4 nM.
Consider “GCUGGUCGAGGAUAUAUAUGACGUGCUUCGGCACGAAGAUCACAUGAGGAUCACCCAUGUAGAAGGCGACCAGC [E2/8-A1] (Eterna round: R97, puzzle: Exclusion 2)”, for which the “apparent KD of MS2 coat protein” value reads like this: (input ligand: FMN 200 uM) 1480 nM; (input ligand: none) 156 nM.
As to “UCCCACCGAGGAUAUGACCAUCAGAACAUGAGGAUCACCCAUGUAUUUCUAUGUUCAGAGUCAGAAGGCGGUUUAU [Eternabot (L2) Solution 20] (Eterna round: R97, puzzle: Exclusion 5)”, the “apparent KD of MS2 coat protein” value reads like this: (input ligand: FMN 200 uM) 190 nM; (input ligand: none) 72.4 nM.
For the sequence “UGGUGGUAGCAGGAUAUGCUUGUUGUGUAGUUUGCAGAAGGGCUAACAUGAGGAUCACCCAUGUAAGAGGUGUU [JR_E6_Sub054] (puzzle: Exclusion 6)”, under setting [2], the “apparent KD of MS2 coat protein” value amounted to 339 nM.
As for “CGUAAGCUAGGAUAUGCUUUGGGAAAGCAUUCCUUCGAUAAACUUGAGGAUCACCCAAGUAGAAGGAGCUUACA [salish99_ex2_r4_012] (Eterna round: R97, puzzle: Exclusion 2)”, the “apparent KD of MS2 coat protein” value by setting is: (input ligand: FMN 200 uM) 18.2 nM; (input ligand: none) 12.3 nM.

The values are drawn from the supplement of paper PMC9170038.
